Measurements: patent US20120003670A1 (BLOOD CENTER RESEARCH FOUNDATION, published 2012)
Positions count from the first letter of the chain named. Names may count otherwise.

B1: GPIbα D235Y, full-length, on transfected HEK-293T cells (receptor)
chain: HPICEVSKVASHLEVNCDKRNLTALPPDLPKDTTILHLSENLLYTFSLATLMPYTRLTQLNLDRCELTKLQVDGTLPVLGTLDLSHNQLQSLPLLGQTLPALTVLDVSFNRLTSLPLGALRGLGELQELYLKGNELKTLPPGLLTPTPKLEKLSLANNNLTELPAGLLNGLENLDTLLLQENSLYTIPKGFFGSHLLPFAFLHGNPWLCNCEILYFRRWLQDNAENVYVWKQGVYVKAMTSNVASVQCDNSDKFPVYKYPGKGCPTLGDEGDTDLYDYYPEEDTEGDKVRATRTVVKFPTKAHTTPWGLFYSWSTASLDSQMPSSLHPTQESTKEQTTFPPRWTPNFTLHMESITFSKTPKSTTEPTPSPTTSEPVPEPAPNMTTLEPTPSPTTPEPTSEPAPSPTTPEPTSEPAPSPTTPEPTPIPTIATSPTILVSATSLITPKSTFLTTTKPVSLLESTKKTIPELDQPPKLRGVLQGHLESSRNDPFLHPDFCCLLPLGFYVLGLFWLLFASVVLILLLSWVGHVKPQALDSGQGAALTTATQTTHLELQRGRQVTVPRAWLLFLRGSLPTFRSSLFLWVRPNGRVGPLVAGRRPSALSQGRGQDLLSTVSIRYSGHSL
notes: Some cells were also transfected with GPIbβ and GP-IX; also called single mutation D235Y
B2: GPIbα G233V/M239V, full-length, on transfected HEK-293T cells (GPIbα alone in Table 2) (receptor)
chain: B1 chain with G233V, Y235D, M239V
notes: also called double mutation G233V/M239V
B3: GPIbα G233V, full-length, on transfected HEK-293T cells (receptor)
chain: B1 chain with G233V, Y235D
notes: Some cells were also transfected with GPIbβ and GP-IX; also called single mutation G233V
B4: wild-type GPIbα (SEQ ID NO:11), full-length, on transfected HEK-293T cells (receptor)
chain: B1 chain with Y235D
notes: also called wild-type control
B5: GPIbα G233V/D235Y, full-length, on transfected HEK-293T cells (receptor)
chain: B1 chain with G233V
notes: Some cells were also transfected with GPIbβ and GP-IX; also called double mutation G233V/D235Y
B6: GPIbα G233V/D235Y/M239V, full-length, on transfected HEK-293T cells (receptor)
chain: B1 chain with G233V, M239V
notes: Some cells were also transfected with GPIbβ and GP-IX; also called triple mutation; triple GPIbα mutation
B7: GPIbα M239V, full-length, on transfected HEK-293T cells (receptor)
chain: B1 chain with Y235D, M239V
notes: Some cells were also transfected with GPIbβ and GP-IX; also called single mutation M239V
B8: GPIbα D235Y/M239V, full-length, on transfected HEK-293T cells (receptor)
chain: B1 chain with M239V
notes: Some cells were also transfected with GPIbβ and GP-IX; also called double mutation D235Y/M239V

How the values were obtained:
[1] = biological target: T1, von Willebrand factor (VWF) in plasma of reference standards, controls and normal individuals (human, UniProt P04275 764-2813); experiment: FACS on transfected HEK-293T cells, ristocetin titration
T1 construct: In the assays VWF was the multimeric protein in diluted platelet poor plasma; also called PPP (source of VWF); ISTH 2
Procedure: (§1) For FACS, about 50 μl of a 1:10 dilution of platelet poor plasma (PPP; source of VWF) in assay buffer was added to the plate and serially diluted 1:2 to final dilution of 1:80. ISTH Lot #3 (GTI; Milwaukee, Wis.) was used as a standard and diluted 1:10 in assay buffer and serially diluted 1:2 to a final dilution of 1:320. The plate was then incubated for one hour at room temperature. After the one-hour incubation, the plate was centrifuged again at 1200 rpm for 5 minutes and the supernatant was discarded.
(§2) In some experiments, the PPP was diluted in PBS containing 1% BSA and either 1 mg/ml Ristocetin A (American Biochemical & Pharmaceuticals, Ltd.; Marlton, N.J.) or 1 mg/ml Botrocetin (Sigma Aldrich).
(§3) Fluorescently labeled antibodies (anti-GPIbα; Blood Research Institute) were diluted to a final concentration of 5 μg/ml in assay buffer. Fluorescently labeled anti-VWF polyclonal was also was diluted to a final concentration of 5 μg/ml in assay buffer and added to transfected cells incubated in PPP. Normal rabbit IgG (NRIgG; Pierce) and AP-1 were added at a concentration of 5 μg/ml to transfected cells as negative and positive controls, respectively. The plate was then incubated in the dark for one hour at room temperature. Assay buffer was added to each well to bring the final volume to 150 μl, and FACS was performed using a BD LSRII System (Becton Dickinson). Results are shown in VWF:IbCo units.

[2] = biological target: T1, von Willebrand factor (VWF) in plasma …; experiment: FACS on transfected HEK-293T cells, with ristocetin or botrocetin
Procedure: as §1, §2
as §3, with “Results are shown in VWF:IbCo units.” left out

Binder | binding result [1] | binding result [2]
B1 | binds | 
B2 | binds | 
B3 | binds | 
B4 |  | binds
B5 | binds | 
B6 | binds | 
B7 | binds | 
B8 | binds | 
